Measured values reported in publication PMC10786891, “Massively parallel profiling of RNA-targeting CRISPR-Cas13d”.

T1: EsCas13d, nuclease-dead (Eubacterium siraeum, UniProt B0MS50, R295A;H300A;R849A;H854A)
T1 sequence: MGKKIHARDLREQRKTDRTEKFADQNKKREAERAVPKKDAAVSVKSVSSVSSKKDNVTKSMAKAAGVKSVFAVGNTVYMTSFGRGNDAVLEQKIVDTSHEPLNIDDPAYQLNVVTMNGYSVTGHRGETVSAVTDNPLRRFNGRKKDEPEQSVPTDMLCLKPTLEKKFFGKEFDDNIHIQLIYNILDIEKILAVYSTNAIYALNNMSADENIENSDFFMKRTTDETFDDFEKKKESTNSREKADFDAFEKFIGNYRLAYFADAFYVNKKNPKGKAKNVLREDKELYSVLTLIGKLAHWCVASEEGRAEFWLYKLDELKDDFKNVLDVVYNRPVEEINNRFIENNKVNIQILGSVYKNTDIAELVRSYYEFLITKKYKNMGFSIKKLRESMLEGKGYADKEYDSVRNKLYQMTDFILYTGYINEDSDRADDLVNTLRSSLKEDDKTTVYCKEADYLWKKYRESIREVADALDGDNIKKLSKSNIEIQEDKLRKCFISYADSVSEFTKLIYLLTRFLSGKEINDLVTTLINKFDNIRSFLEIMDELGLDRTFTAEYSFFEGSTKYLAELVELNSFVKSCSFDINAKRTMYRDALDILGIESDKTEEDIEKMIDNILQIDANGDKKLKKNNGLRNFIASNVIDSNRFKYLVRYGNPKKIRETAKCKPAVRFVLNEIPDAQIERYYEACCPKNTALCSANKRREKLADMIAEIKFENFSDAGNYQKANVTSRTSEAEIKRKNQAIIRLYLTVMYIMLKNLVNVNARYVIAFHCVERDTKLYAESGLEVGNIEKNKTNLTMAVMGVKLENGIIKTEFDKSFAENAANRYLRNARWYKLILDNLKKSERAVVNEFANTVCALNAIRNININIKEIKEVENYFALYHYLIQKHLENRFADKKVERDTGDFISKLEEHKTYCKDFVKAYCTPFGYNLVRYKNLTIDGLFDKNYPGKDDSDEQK

B1: target 1 del8,del16 (mixed)
RNA 1: CACCCGUGCAAAAAUGCAGGGGUCUAAAACUGAGCGGAUAACCUCUCUAUGG
RNA 2: GGGAAUGGAUCCACAUCUACGAAUUCGUACCAUAGGAGGUUACCGCUCACCGAGAUCGGAAGAGCACACGU
B2: target 1 A14G,G15A (mixed)
RNA 1: CACCCGUGCAAAAAUGCAGGGGUCUAAAACUGAGCGGAUAACCUCUCUAUGG
RNA 2: GGGAAUGGAUCCACAUCUACGAAUUCGUACCAUAGAAGGGUUAUCCGCUCACCGAGAUCGGAAGAGCACACGU
B3: target 1 insA 3' of 5,insC 3' of 5 (mixed)
RNA 1: CACCCGUGCAAAAAUGCAGGGGUCUAAAACUGAGCGGAUAACCUCUCUAUGG
RNA 2: GGGAAUGGAUCCACAUCUACGAAUUCGUACCAUAGAGAGGUUAUCCGACCUCACCGAGAUCGGAAGAGCACACGU
B4: target 1 A16G (mixed)
RNA 1: CACCCGUGCAAAAAUGCAGGGGUCUAAAACUGAGCGGAUAACCUCUCUAUGG
RNA 2: GGGAAUGGAUCCACAUCUACGAAUUCGUACCAUAGGGAGGUUAUCCGCUCACCGAGAUCGGAAGAGCACACGU
B5: target 1 insA 3' of 5,insA 3' of 4 (mixed)
RNA 1: CACCCGUGCAAAAAUGCAGGGGUCUAAAACUGAGCGGAUAACCUCUCUAUGG
RNA 2: GGGAAUGGAUCCACAUCUACGAAUUCGUACCAUAGAGAGGUUAUCCGACAUCACCGAGAUCGGAAGAGCACACGU
B6: target 1 C6U,A18C (mixed)
RNA 1: CACCCGUGCAAAAAUGCAGGGGUCUAAAACUGAGCGGAUAACCUCUCUAUGG
RNA 2: GGGAAUGGAUCCACAUCUACGAAUUCGUACCAUCGAGAGGUUAUCUGCUCACCGAGAUCGGAAGAGCACACGU
B7: target 1 insC 3' of 22,insG 3' of 4 (mixed)
RNA 1: CACCCGUGCAAAAAUGCAGGGGUCUAAAACUGAGCGGAUAACCUCUCUAUGG
RNA 2: GGGAAUGGAUCCACAUCUACGAAUUCGUACCCAUAGAGAGGUUAUCCGCGUCACCGAGAUCGGAAGAGCACACGU
B8: target 1 insA 3' of 21,insA 3' of 21 (mixed)
RNA 1: CACCCGUGCAAAAAUGCAGGGGUCUAAAACUGAGCGGAUAACCUCUCUAUGG
RNA 2: GGGAAUGGAUCCACAUCUACGAAUUCGUACCAAAUAGAGAGGUUAUCCGCUCACCGAGAUCGGAAGAGCACACGU
B9: target 1 insC 3' of 16,insC 3' of 8 (mixed)
RNA 1: CACCCGUGCAAAAAUGCAGGGGUCUAAAACUGAGCGGAUAACCUCUCUAUGG
RNA 2: GGGAAUGGAUCCACAUCUACGAAUUCGUACCAUAGACGAGGUUAUCCCGCUCACCGAGAUCGGAAGAGCACACGU
B10: target 1 MT 5'PFS UAG 3'PFS UUU (mixed)
RNA 1: CACCCGUGCAAAAAUGCAGGGGUCUAAAACUGAGCGGAUAACCUCUCUAUGG
RNA 2: GGGAAUGGAUCCACAUCUACGAAUUCUAGCCAUAGAGAGGUUAUCCGCUCAUUUAGAUCGGAAGAGCACACGU
B11: target 1 U3G,U8G (mixed)
RNA 1: CACCCGUGCAAAAAUGCAGGGGUCUAAAACUGAGCGGAUAACCUCUCUAUGG
RNA 2: GGGAAUGGAUCCACAUCUACGAAUUCGUACCAUAGAGAGGUUAGCCGCGCACCGAGAUCGGAAGAGCACACGU
B12: target 1 insA 3' of 6,insA 3' of 5 (mixed)
RNA 1: CACCCGUGCAAAAAUGCAGGGGUCUAAAACUGAGCGGAUAACCUCUCUAUGG
RNA 2: GGGAAUGGAUCCACAUCUACGAAUUCGUACCAUAGAGAGGUUAUCCAGACUCACCGAGAUCGGAAGAGCACACGU
B13: target 1 MT 5'PFS UAG 3'PFS UUC (mixed)
RNA 1: CACCCGUGCAAAAAUGCAGGGGUCUAAAACUGAGCGGAUAACCUCUCUAUGG
RNA 2: GGGAAUGGAUCCACAUCUACGAAUUCUAGCCAUAGAGAGGUUAUCCGCUCAUUCAGAUCGGAAGAGCACACGU
B14: target 1 insU 3' of 14,insA 3' of 13 (mixed)
RNA 1: CACCCGUGCAAAAAUGCAGGGGUCUAAAACUGAGCGGAUAACCUCUCUAUGG
RNA 2: GGGAAUGGAUCCACAUCUACGAAUUCGUACCAUAGAGAUGAGUUAUCCGCUCACCGAGAUCGGAAGAGCACACGU
B15: target 1 MT 5'PFS UAG 3'PFS UUA (mixed)
RNA 1: CACCCGUGCAAAAAUGCAGGGGUCUAAAACUGAGCGGAUAACCUCUCUAUGG
RNA 2: GGGAAUGGAUCCACAUCUACGAAUUCUAGCCAUAGAGAGGUUAUCCGCUCAUUAAGAUCGGAAGAGCACACGU
B16: target 1 insA 3' of 7,insC 3' of 3 (mixed)
RNA 1: CACCCGUGCAAAAAUGCAGGGGUCUAAAACUGAGCGGAUAACCUCUCUAUGG
RNA 2: GGGAAUGGAUCCACAUCUACGAAUUCGUACCAUAGAGAGGUUAUCACGCUCCACCGAGAUCGGAAGAGCACACGU
B17: target 1 MT 5'PFS UAG 3'PFS UUG (mixed)
RNA 1: CACCCGUGCAAAAAUGCAGGGGUCUAAAACUGAGCGGAUAACCUCUCUAUGG
RNA 2: GGGAAUGGAUCCACAUCUACGAAUUCUAGCCAUAGAGAGGUUAUCCGCUCAUUGAGAUCGGAAGAGCACACGU
B18: target 1 insC 3' of 17,insA 3' of 5 (mixed)
RNA 1: CACCCGUGCAAAAAUGCAGGGGUCUAAAACUGAGCGGAUAACCUCUCUAUGG
RNA 2: GGGAAUGGAUCCACAUCUACGAAUUCGUACCAUAGCAGAGGUUAUCCGACUCACCGAGAUCGGAAGAGCACACGU
B19: target 1 insU 3' of 21,insA 3' of 6 (mixed)
RNA 1: CACCCGUGCAAAAAUGCAGGGGUCUAAAACUGAGCGGAUAACCUCUCUAUGG
RNA 2: GGGAAUGGAUCCACAUCUACGAAUUCGUACCUAUAGAGAGGUUAUCCAGCUCACCGAGAUCGGAAGAGCACACGU
B20: target 1 insA 3' of 17,insC 3' of 11 (mixed)
RNA 1: CACCCGUGCAAAAAUGCAGGGGUCUAAAACUGAGCGGAUAACCUCUCUAUGG
RNA 2: GGGAAUGGAUCCACAUCUACGAAUUCGUACCAUAGAAGAGGUCUAUCCGCUCACCGAGAUCGGAAGAGCACACGU
B21: target 1 A16C,A20U (mixed)
RNA 1: CACCCGUGCAAAAAUGCAGGGGUCUAAAACUGAGCGGAUAACCUCUCUAUGG
RNA 2: GGGAAUGGAUCCACAUCUACGAAUUCGUACCUUAGCGAGGUUAUCCGCUCACCGAGAUCGGAAGAGCACACGU
B22: target 1 insA 3' of 17,insA 3' of 3 (mixed)
RNA 1: CACCCGUGCAAAAAUGCAGGGGUCUAAAACUGAGCGGAUAACCUCUCUAUGG
RNA 2: GGGAAUGGAUCCACAUCUACGAAUUCGUACCAUAGAAGAGGUUAUCCGCUACACCGAGAUCGGAAGAGCACACGU
B23: target 1 MT 5'PFS GAA 3'PFS CAU (mixed)
RNA 1: CACCCGUGCAAAAAUGCAGGGGUCUAAAACUGAGCGGAUAACCUCUCUAUGG
RNA 2: GGGAAUGGAUCCACAUCUACGAAUUCGAACCAUAGAGAGGUUAUCCGCUCACAUAGAUCGGAAGAGCACACGU
B24: target 1 insC 3' of 13,insG 3' of 4 (mixed)
RNA 1: CACCCGUGCAAAAAUGCAGGGGUCUAAAACUGAGCGGAUAACCUCUCUAUGG
RNA 2: GGGAAUGGAUCCACAUCUACGAAUUCGUACCAUAGAGAGCGUUAUCCGCGUCACCGAGAUCGGAAGAGCACACGU
B25: target 1 U8G,G12U (mixed)
RNA 1: CACCCGUGCAAAAAUGCAGGGGUCUAAAACUGAGCGGAUAACCUCUCUAUGG
RNA 2: GGGAAUGGAUCCACAUCUACGAAUUCGUACCAUAGAGAGUUUAGCCGCUCACCGAGAUCGGAAGAGCACACGU
B26: target 1 C6A,G17U (mixed)
RNA 1: CACCCGUGCAAAAAUGCAGGGGUCUAAAACUGAGCGGAUAACCUCUCUAUGG
RNA 2: GGGAAUGGAUCCACAUCUACGAAUUCGUACCAUAUAGAGGUUAUCAGCUCACCGAGAUCGGAAGAGCACACGU
B27: target 1 insA 3' of 8,insU 3' of 1 (mixed)
RNA 1: CACCCGUGCAAAAAUGCAGGGGUCUAAAACUGAGCGGAUAACCUCUCUAUGG
RNA 2: GGGAAUGGAUCCACAUCUACGAAUUCGUACCAUAGAGAGGUUAUACCGCUCAUCCGAGAUCGGAAGAGCACACGU
B28: target 1 insA 3' of 3,insG 3' of 3 (mixed)
RNA 1: CACCCGUGCAAAAAUGCAGGGGUCUAAAACUGAGCGGAUAACCUCUCUAUGG
RNA 2: GGGAAUGGAUCCACAUCUACGAAUUCGUACCAUAGAGAGGUUAUCCGCUAGCACCGAGAUCGGAAGAGCACACGU

Each binder was assayed against T1, EsCas13d, nuclease-dead (assay: crRNA (strand 1, pre-loaded); Mg2+; 40 mM Tris-HCl pH 7.5, 150 mM NaCl, 6 mM MgCl2, 1 mM DTT, 0.1% Tween-20, 0.2 mg/ml BSA; 25 C; 10 min per concentration, then washed). Settings: tags: His6-TwinStrep-SUMO cleaved; N-terminal SNAP kept (SNAP-Surface 488); label: 3' end held by stalled T7 RNA polymerase.
B1 gave a Kd of 71 ± 18 nM.
Work on B2 yielded a Kd of 14.8 ± 1.5 nM.
With B3 the Kd was 11.3 ± 1 nM.
In the case of B4, the Kd is reported as 29.4 ± 1.4 nM.
In the case of B5, the Kd is reported as 9.8 ± 1.1 nM.
B6 gave a Kd of 58 ± 7 nM.
With B7 the Kd was 12.8 ± 1.1 nM.
B8 gave a Kd of 15.4 ± 0.8 nM.
Binder B9 has a Kd of roughly 90 nM.
With B10 the Kd was 23.4 ± 3.05 nM.
Work on B11 yielded a Kd of 10.8 ± 0.4 nM.
B12 showed a Kd of 53 ± 6 nM.
B13 was tested, and the Kd was 18.9 ± 3.85 nM.
In the case of B14, the Kd is reported as 9.2 ± 0.8 nM.
With B15 the Kd was 18.4 ± 3.7 nM.
Binder B16 has a Kd of 6.32 ± 0.25 nM.
Work on B17 yielded a Kd of 12.9 ± 1.1 nM.
B18 was tested, and the Kd was 23 ± 4 nM.
With B19 the Kd was 28.2 ± 2.3 nM.
In the case of B20, the Kd is reported as 51 ± 10 nM.
For B21, the Kd was 85 ± 29 nM.
B22 showed a Kd of 11.7 ± 0.4 nM.
In the case of B23, the Kd is reported as roughly 95 nM.
Binder B24 has a Kd of 5.33 ± 0.22 nM.
For B25, the Kd was 11.8 ± 1.3 nM.
With B26 the Kd was 18.7 ± 1.2 nM.
B27 showed a Kd of 12.9 ± 0.6 nM.
B28 gave a Kd of 6.2 ± 0.5 nM.
